The text below walks through data of publication PMC4643928.

What all share (test): fluorescence anisotropy
Common to all, as to details: FA: 20 mM Tris-HCl pH 7.5, 70 mM KCl, 1 mM MgCl2, 10% glycerol, 50 nM DNA, EMSA: 20 mM Tris-HCl pH 7.5, 300 mM KCl, 4 mM MgCl2, 5 mM DTT, 1 nM …
(In general: In fluorescence polarisation assays a small probe gives low polarisation when free and higher when bound to something large.)

For series [1], the system named is MBP-PfGyrA-CTD (Plasmodium falciparum).
The subject of series [2] is EcGyrA-CTD(ΔT) (Escherichia coli).
In series [3] the test system is MBP-PfGyrA-CTD(ΔN) (Plasmodium falciparum).

pKd: −log10 of the molar value.

Consider 37-bp dsDNA, for which the results for the pKd in series [1], in series [2] and in series [3] were 6.69, 5.95 and 6.65, respectively.
